According to patent publication US20170051261:
Positions count from the first letter of the chain named. In names and notes the source's numbering stands.

B1: A199S/S227A/S287G/A328W/Y332G mutant mouse BChE (protein)
chain: EEDFIITTKTGRVRGLSMPVLGGTVTAFLGIPYAQPPLGSLRFKKPQPLNKWPDIHNATQYANSCYQNIDQAFPGFQGSEMWNPNTNLSEDCLYLNVWIPVPKPKNATVMVWIYGGGFQTGTSSLPVYDGKFLARVERVIVVSMNYRVGALGFLAFPGNPDAPGNMGLFDQQLALQWVQRNIAAFGGNPKSITIFGESSGAASVSLHLLCPQSYPLFTRAILESGSANAPWAVKHPEEARNRTLTLAKFTGCSKENEMEMIKCLRSKDPQEILRNERFVLPSDSILGINFGPTVDGDFLTDMPHTLLQLGKVKKAQILVGVNKDEGTWFLVGGAPGFSKDNDSLITRKEFQEGLNMYFPGVSRLGKEAVLFYYVDWLGEQSPEVYRDALDDVIGDYNIICPALEFTKKFAELENNAFFYFFEHRSSKLPWPEWMGVMHGYEIEFVFGLPLGRRVNYTRAEEIFSRSIMKTWANFAKYGHPNGTQGNSTMWPVFTSTEQKYLTLNTEKSKIYSKLRAPQCQFWRLFFPKVLEMTGDIDETEQEWKAGFHRWSNYMMDWQNQFNDYTSKKESCTAL
B2: purified human butyrylcholinesterase (wild-type human BChE) (protein)
chain: EDDIIIATKNGKVRGMNLTVFGGTVTAFLGIPYAQPPLGRLRFKKPQSLTKWSDIWNATKYANSCCQNIDQSFPGFHGSEMWNPNTDLSEDCLYLNVWIPAPKPKNATVLIWIYGGGFQTGTSSLHVYDGKFLARVERVIVVSMNYRVGALGFLALPGNPEAPGNMGLFDQQLALQWVQKNIAAFGGNPKSVTLFGESAGAASVSLHLLSPGSHSLFTRAILQSGSFNAPWAVTSLYEARNRTLNLAKLTGCSRENETEIIKCLRNKDPQEILLNEAFVVPYGTPLSVNFGPTVDGDFLTDMPDILLELGQFKKTQILVGVNKDEGTAFLVYGAPGFSKDNNSIITRKEFQEGLKIFFPGVSEFGKESILFHYTDWVDDQRPENYREALGDVVGDYNFICPALEFTKKFSEWGNNAFFYYFEHRSSKLPWPEWMGVMHGYEIEFVFGLPLERRDNYTKAEEILSRSIVKRWANFAKYGNPNETQNNSTSWPVFKSTEQKYLTLNTESTRIMTKLRAQQCRFWTSFFPKVLEMTGNIDEAEWEWKAGFHRWNNYMMDWKNQFNDYTSKKESCVGL
B3: A199S/F227A/S287G/A328W/Y332G mutant human BChE (protein)
chain: B2 chain with A199S, F227A, S287G, A328W, Y332G

Biological target: human acyl ghrelin, Q9UBU3
Sequence (Q9UBU3 whole entry, looked up): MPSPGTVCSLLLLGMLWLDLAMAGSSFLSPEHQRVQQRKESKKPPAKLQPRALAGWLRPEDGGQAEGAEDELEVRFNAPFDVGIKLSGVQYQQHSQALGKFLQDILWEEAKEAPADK

| Protein | ghrelin hydrolyzing activity in vitro (human ghrelin immunoassay kit: decrease in acyl ghrelin, increase in deacyl ghrelin) | hydrolysis (deacylation) of acyl ghrelin in vitro; residual acyl ghrelin and desacyl ghrelin by immunoassay | time course of acyl ghrelin hydrolysis in vitro |
| --- | --- | --- | --- |
| B1 | exhibited enhanced activity (e.g., at least 20-fold more activity), comparable to that of wild type mouse BChE |  |  |
| B2 |  | Incubation of a sample containing acyl ghrelin with increasing amounts of human BChE resulted in a decrease in the amount of acyl ghrelin and an increase in the amount of the breakdown product, desacyl ghrelin | A linear hydrolysis rate was observed |
| B3 | exhibited modest activity, comparable to that of wild type human BChE |  |  |
